Measurements reported in PMC4897640, “Functional diversity of family 3 β-glucosidases from thermophilic cellulolytic fungus Humicola insolens Y1” (Scientific Reports, 2016).
Positions count from the first letter of the chain named. Names and notes keep the numbering of the source.

T1: HiBgl3C (Mycothermus thermophilus, UniProt A0A191KCR0)
T1 construct: the same GenBank number is also printed for Hibgl3B
T1 sequence (A0A191KCR0 18-733): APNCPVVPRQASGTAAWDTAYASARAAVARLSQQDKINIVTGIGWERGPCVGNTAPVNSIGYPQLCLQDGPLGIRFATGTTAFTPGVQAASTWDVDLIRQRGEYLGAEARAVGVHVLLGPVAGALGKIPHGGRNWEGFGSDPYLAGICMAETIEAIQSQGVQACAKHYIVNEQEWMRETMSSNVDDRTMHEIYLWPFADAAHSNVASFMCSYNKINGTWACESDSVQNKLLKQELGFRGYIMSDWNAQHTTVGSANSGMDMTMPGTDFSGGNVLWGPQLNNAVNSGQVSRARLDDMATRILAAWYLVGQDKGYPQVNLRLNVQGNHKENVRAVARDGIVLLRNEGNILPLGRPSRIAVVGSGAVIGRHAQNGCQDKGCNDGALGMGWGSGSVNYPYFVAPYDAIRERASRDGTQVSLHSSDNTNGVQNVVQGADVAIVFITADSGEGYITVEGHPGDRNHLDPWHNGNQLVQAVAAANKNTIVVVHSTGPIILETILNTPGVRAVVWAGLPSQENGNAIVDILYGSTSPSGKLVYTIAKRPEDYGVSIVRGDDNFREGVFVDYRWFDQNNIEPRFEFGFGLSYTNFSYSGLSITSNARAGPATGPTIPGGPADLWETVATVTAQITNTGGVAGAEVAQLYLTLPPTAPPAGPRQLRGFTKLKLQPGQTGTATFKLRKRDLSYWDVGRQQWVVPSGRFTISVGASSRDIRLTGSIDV

B1: HiBgl3C (Mycothermus thermophilus) (protein)
chain: T1 sequence (A0A191KCR0 18-733)
B2: HiBgl3A (Mycothermus thermophilus) (protein)
chain: NRHRQVIGRNHLNHHHRSQRELAYSPPSYPSPWMDPKAAEWQNAYAKAKAFVSKLTLLEKVNLTTGVGWASEQCVGNTGSVPRLGLRGLCLHDSPLGIRGSDYNSAFPSGQTTAATFDRILMYRRGYAMGKEAKGKGINVLLGPVAGPLGRMPAAGRNWEGFSPDPVLTGVGMAETIKGIQDAGVVACAKHLIGNEQEHFRQAGEDYGFNITEALSSNIDDKTMHELYLWPFVDAVRAGVGSVMCAYTQVNNSYSCQNSYLLNYLLKNELGFQGFVMSDWQAQHAGVSAAVAGLDMSMPGDTTFNTGVSFWGANLTLAVLNGTVPRYRIDDMAMRIMAAFFKVHPDIHLDPVNFSFWTRQTYGPLHWRAGDGYQQVNFHVDVREDHHLLIREIAAKGTVLLKNTGGLPLKKPKFIAVIGDDAGPNPNGPNSCDDRGCNNGTLAMGWGSGTANFPYLITPDAALQARALRDGTRYESVLTNYALEKTETLVSQANATAIVFVNANSGEGYTRVDGNMGDRKNLTLWGNGDDLIKNVSSWCSNTIVVIHSTGPVLLTDWYNSPNITAILWAGLPGQESGNSLVDVLYGDVNPAGRTPFTWGATRESYGVDVMYKPNNDDGAPQQDFDEGVFIDYRYFDREDTPVIYEFGHGLSYTTFNYSNLKIEKHNAEPYKPTTGKTTPAPTFGQDDAYGYTGSEKYLFPPSPFRRITDYIYPYLNSTDPHEASLDPHYGQTAEQFLPPGALRADEQPLLRASGQHQPGGNPGLWDVLYTITADITNMGSVTGDEVPQLYVSLGGPQDPKVVLRGFDRLREIGPGETRQFMARLTRRDLSNWDPVLQDWVVGGHKKTVFVGKSSRKLELSAELP
B3: HiBgl3A (Mycothermus thermophilus; Y529T) (protein)
chain: B2 chain with Y509T
B4: HiBgl3B (Mycothermus thermophilus; I311F) (protein)
chain: RVVEPRDPVPQGYHAASYYPAPHGGWVSSWREAYEKAYALVSQMTLAEKVNITSGVGIYMGPCVGNTGSVDRLGFPQLCLQDSALGVASADNVTAFPAGITTGATWDKQLMYARGVAIGKEFRGKGANIHLGPSVGPLGRKPLGGRNWEGFGSDPVLQGKAAALHIRGVQEQGIIATIKHLVGNEQEMYRMYHIFQEGYSANIDDRTLHELYLWPFAEAVRAGVGAAMTAYNAVNGSACSQNSYLINGILKDELGFQGLVMSDWLSHISGVGSALAGLDLNMPGDTNFPLFGNSLWQYELTRAVLNGSVPVDRLNDMATRVVATWYKFGQDKNHPRPNFSSNTRSRDGPLYPGALFSPSGQVNWFVNVQEDHYLVARQVAQDAITLLKNNDSLLPLDAGDLTGGKLSVFGTDAQVNPDGPNSCLARACNKGTLGMGWGSGIADYPYMDDPIGAIRKRVPDVKFYNTDSFPWFFGTPENDEVAMVFISSDSGENTLTVEGNHGDRDSAKLRAWHDGDKLVQKVAEKFKNVIVVVHTVGPLDLEPWIELPSVKAVLFAHLPGQEAGESLTNVLFGDVSPSGHLPYSITRKASDLPDSIANLKGFTWGQVQDTYSEGLYIDYRYLQKHSIQPRFAFGHGLSYTNFSFTNATIRAITTPLSVTPPAPPATRPASVVAKYSTDIPPASEAYEPAGFSRIWRYLYPWLSKSDADAAHAIGTSKSKTYPYPPGYSTVQRASFPPAGGGEGGNPALWDVAYEVTVRVTNTGKRPGKASAQLYLQFPEGIEYDTPVLQLRDFEKTKELQPGESQELKLTLTRKDVSVWDVRRQNWVVPTAIDDKKGFTAWVGEASDKLKVACYTGEGRCVEGAKQPV
B5: HiBgl3B (Mycothermus thermophilus; T517Y) (protein)
chain: B4 chain with F288I, T494Y
B6: HiBgl3B (Mycothermus thermophilus; I311F/I81W/T517Y) (protein)
chain: B4 chain with I58W, T494Y
B7: HiBgl3B (Mycothermus thermophilus) (protein)
chain: B4 chain with F288I
B8: HiBgl3B (Mycothermus thermophilus; I81W) (protein)
chain: B4 chain with I58W, F288I

Columns and labels:
[1] = target: T2, HiBgl3B (Mycothermus thermophilus, UniProt A0A191KCR2); experiment: pNPG hydrolysis, Dixon plot; format: biochemical; details: read-out: Ki (mM) / pNPG; substrate pNPG 0.75 and 1 mM, glucose 5-50 mM; product inhibition, mode not stated
T2 construct: GenBank printed as KT203372, same as Hibgl3C, so probably a misprint of KT203371

[2] = target: HiBgl3A (Mycothermus thermophilus, UniProt A0A191KCR1); experiment: pNPG hydrolysis, Dixon plot; format: biochemical; details: read-out: Ki (mM) / pNPG; substrate pNPG 0.75 and 1 mM, glucose 5-50 mM; product inhibition, mode not stated
[3] = target: T1, HiBgl3C; experiment: pNPG hydrolysis, Dixon plot; format: biochemical; details: read-out: Ki (mM) / pNPG; substrate pNPG 0.75 and 1 mM, glucose 5-50 mM; product inhibition, mode not stated
[4] = substrate: O=[N+]([O-])c1ccc(O[C@@H]2O[C@H](CO)[C@@H](O)[C@H](O)[C@H]2O)cc1; experiment: purified protein; details: 100 mM Na2HPO4-citric acid
[5] = optimal conditions (pH 5.5, 55 °C in table; 60 °C in text), pH 5.5
[6] = optimal conditions (pH 6.0, 50 °C), pH 6.0, 50.0 °C

T2 sequence (A0A191KCR2 entry or part of it): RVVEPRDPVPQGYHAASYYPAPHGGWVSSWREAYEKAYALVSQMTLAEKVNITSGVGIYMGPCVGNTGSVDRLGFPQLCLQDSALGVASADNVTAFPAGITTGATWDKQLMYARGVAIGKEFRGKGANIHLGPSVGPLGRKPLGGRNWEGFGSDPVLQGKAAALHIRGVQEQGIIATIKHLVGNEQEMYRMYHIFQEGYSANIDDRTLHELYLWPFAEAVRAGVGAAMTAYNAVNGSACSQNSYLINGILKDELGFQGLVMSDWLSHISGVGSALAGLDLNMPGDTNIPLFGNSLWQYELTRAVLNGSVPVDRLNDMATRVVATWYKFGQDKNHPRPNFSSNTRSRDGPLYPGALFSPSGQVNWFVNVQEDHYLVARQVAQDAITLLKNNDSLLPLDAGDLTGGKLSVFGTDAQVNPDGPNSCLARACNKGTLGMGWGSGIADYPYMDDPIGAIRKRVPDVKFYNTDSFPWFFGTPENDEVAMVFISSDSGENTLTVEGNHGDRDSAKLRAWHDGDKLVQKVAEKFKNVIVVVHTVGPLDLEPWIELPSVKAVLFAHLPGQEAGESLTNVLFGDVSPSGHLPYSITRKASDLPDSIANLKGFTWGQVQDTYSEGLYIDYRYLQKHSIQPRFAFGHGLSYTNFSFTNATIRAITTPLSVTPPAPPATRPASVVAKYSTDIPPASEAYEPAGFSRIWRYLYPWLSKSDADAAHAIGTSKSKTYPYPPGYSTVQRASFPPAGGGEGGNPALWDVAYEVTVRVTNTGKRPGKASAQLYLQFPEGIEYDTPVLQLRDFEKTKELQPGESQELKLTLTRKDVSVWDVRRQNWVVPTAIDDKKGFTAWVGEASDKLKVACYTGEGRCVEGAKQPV

Row | Molecule | Km ([4]; optimal conditions) [µM] | Vmax ([4]; optimal conditions) [µmol/min/mg] | kcat ([4]; optimal conditions) [s⁻¹] | kcat/Km ([4]; optimal conditions) [M⁻¹ s⁻¹] | also measured
1 | OC[C@H]1OC(O)[C@H](O)[C@@H](O)[C@@H]1O (stereo partly drawn) [glucose] | – | – | – | – | Ki [1]: 55.2 mM; Ki [2]: 25 mM; Ki [3]: 37.1 mM
2 | B1 | – | – | – | – | Km [4, 5]: 200 µM; kcat/Km [4, 5]: 1.56e+06 M⁻¹ s⁻¹
3 | B2 | – | – | – | – | Km ([4]; pH 5.5, 60 °C, pH 5.5, 60.0 °C): 900 µM; Vmax ([4]; pH 5.5, 60 °C, pH 5.5, 60.0 °C): 46.2 µmol/min/mg; kcat ([4]; pH 5.5, 60 °C, pH 5.5, 60.0 °C): 73.1 s⁻¹; kcat/Km ([4]; pH 5.5, 60 °C, pH 5.5, 60.0 °C): 81600 M⁻¹ s⁻¹
4 | B3 | 2450 | 43 | 68.2 | 27800 | –
5 | B4 | 2420 | 6.07 | 9.61 | 3980 | –
6 | B5 | 2370 | 9.51 | 15.1 | 6360 | –
7 | B6 | 2480 | 2.68 | 4.24 | 1710 | –
8 | B7 | – | – | – | – | Km [4, 6]: 1510 µM; Vmax [4, 6]: 25.5 µmol/min/mg; kcat [4, 6]: 40.4 s⁻¹; kcat/Km [4, 6]: 26800 M⁻¹ s⁻¹
9 | B8 | 1990 | 2.03 | 3.21 | 1610 | –
